First the molecules themselves.
T1: EsCas13d, nuclease-dead (Eubacterium siraeum, UniProt B0MS50, R295A;H300A;R849A;H854A)
T1 sequence: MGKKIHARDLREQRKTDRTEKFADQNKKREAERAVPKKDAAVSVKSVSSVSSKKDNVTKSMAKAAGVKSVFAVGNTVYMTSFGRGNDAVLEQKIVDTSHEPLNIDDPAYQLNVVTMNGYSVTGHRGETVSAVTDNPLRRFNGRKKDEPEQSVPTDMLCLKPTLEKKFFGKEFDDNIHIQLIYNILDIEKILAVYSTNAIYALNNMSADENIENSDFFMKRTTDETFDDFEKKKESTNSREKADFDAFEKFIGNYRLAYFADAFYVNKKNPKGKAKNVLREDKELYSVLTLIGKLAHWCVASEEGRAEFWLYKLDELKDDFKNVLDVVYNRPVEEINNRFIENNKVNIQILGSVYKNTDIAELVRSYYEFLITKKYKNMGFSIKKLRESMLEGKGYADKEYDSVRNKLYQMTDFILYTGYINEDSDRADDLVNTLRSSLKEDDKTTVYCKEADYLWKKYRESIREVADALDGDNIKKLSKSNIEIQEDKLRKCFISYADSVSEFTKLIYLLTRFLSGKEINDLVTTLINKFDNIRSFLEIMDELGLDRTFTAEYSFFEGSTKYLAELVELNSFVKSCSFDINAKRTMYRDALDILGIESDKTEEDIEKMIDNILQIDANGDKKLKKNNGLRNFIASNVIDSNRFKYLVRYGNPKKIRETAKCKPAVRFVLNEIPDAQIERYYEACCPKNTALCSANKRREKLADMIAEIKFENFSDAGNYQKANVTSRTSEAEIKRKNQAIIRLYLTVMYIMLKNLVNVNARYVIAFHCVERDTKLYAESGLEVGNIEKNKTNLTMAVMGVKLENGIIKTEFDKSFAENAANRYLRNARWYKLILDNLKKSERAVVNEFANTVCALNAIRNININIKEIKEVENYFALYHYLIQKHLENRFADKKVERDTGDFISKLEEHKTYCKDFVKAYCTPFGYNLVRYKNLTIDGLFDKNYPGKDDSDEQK

B1: target 1 MT 5'PFS CUU 3'PFS CUG (mixed)
RNA 1: CACCCGUGCAAAAAUGCAGGGGUCUAAAACUGAGCGGAUAACCUCUCUAUGG
RNA 2: GGGAAUGGAUCCACAUCUACGAAUUCCUUCCAUAGAGAGGUUAUCCGCUCACUGAGAUCGGAAGAGCACACGU
B2: target 1 MT 5'PFS AGA 3'PFS AUC (mixed)
RNA 1: CACCCGUGCAAAAAUGCAGGGGUCUAAAACUGAGCGGAUAACCUCUCUAUGG
RNA 2: GGGAAUGGAUCCACAUCUACGAAUUCAGACCAUAGAGAGGUUAUCCGCUCAAUCAGAUCGGAAGAGCACACGU
B3: target 1 MT 5'PFS GUU 3'PFS AAU (mixed)
RNA 1: CACCCGUGCAAAAAUGCAGGGGUCUAAAACUGAGCGGAUAACCUCUCUAUGG
RNA 2: GGGAAUGGAUCCACAUCUACGAAUUCGUUCCAUAGAGAGGUUAUCCGCUCAAAUAGAUCGGAAGAGCACACGU
B4: target 1 MT 5'PFS GCA 3'PFS UGA (mixed)
RNA 1: CACCCGUGCAAAAAUGCAGGGGUCUAAAACUGAGCGGAUAACCUCUCUAUGG
RNA 2: GGGAAUGGAUCCACAUCUACGAAUUCGCACCAUAGAGAGGUUAUCCGCUCAUGAAGAUCGGAAGAGCACACGU
B5: target 1 MT 5'PFS CCU 3'PFS ACG (mixed)
RNA 1: CACCCGUGCAAAAAUGCAGGGGUCUAAAACUGAGCGGAUAACCUCUCUAUGG
RNA 2: GGGAAUGGAUCCACAUCUACGAAUUCCCUCCAUAGAGAGGUUAUCCGCUCAACGAGAUCGGAAGAGCACACGU
B6: target 1 MT 5'PFS CUG 3'PFS ACU (mixed)
RNA 1: CACCCGUGCAAAAAUGCAGGGGUCUAAAACUGAGCGGAUAACCUCUCUAUGG
RNA 2: GGGAAUGGAUCCACAUCUACGAAUUCCUGCCAUAGAGAGGUUAUCCGCUCAACUAGAUCGGAAGAGCACACGU
B7: target 1 MT 5'PFS GGC 3'PFS AAC (mixed)
RNA 1: CACCCGUGCAAAAAUGCAGGGGUCUAAAACUGAGCGGAUAACCUCUCUAUGG
RNA 2: GGGAAUGGAUCCACAUCUACGAAUUCGGCCCAUAGAGAGGUUAUCCGCUCAAACAGAUCGGAAGAGCACACGU
B8: target 1 MT 5'PFS AGG 3'PFS AGG (mixed)
RNA 1: CACCCGUGCAAAAAUGCAGGGGUCUAAAACUGAGCGGAUAACCUCUCUAUGG
RNA 2: GGGAAUGGAUCCACAUCUACGAAUUCAGGCCAUAGAGAGGUUAUCCGCUCAAGGAGAUCGGAAGAGCACACGU
B9: target 1 MT 5'PFS GGC 3'PFS AAU (mixed)
RNA 1: CACCCGUGCAAAAAUGCAGGGGUCUAAAACUGAGCGGAUAACCUCUCUAUGG
RNA 2: GGGAAUGGAUCCACAUCUACGAAUUCGGCCCAUAGAGAGGUUAUCCGCUCAAAUAGAUCGGAAGAGCACACGU
B10: target 1 insU 3' of 22,insC 3' of 22 (mixed)
RNA 1: CACCCGUGCAAAAAUGCAGGGGUCUAAAACUGAGCGGAUAACCUCUCUAUGG
RNA 2: GGGAAUGGAUCCACAUCUACGAAUUCGUACUCCAUAGAGAGGUUAUCCGCUCACCGAGAUCGGAAGAGCACACGU
B11: target 1 MT 5'PFS CUU 3'PFS CUA (mixed)
RNA 1: CACCCGUGCAAAAAUGCAGGGGUCUAAAACUGAGCGGAUAACCUCUCUAUGG
RNA 2: GGGAAUGGAUCCACAUCUACGAAUUCCUUCCAUAGAGAGGUUAUCCGCUCACUAAGAUCGGAAGAGCACACGU
B12: target 1 MT 5'PFS CUU 3'PFS CUC (mixed)
RNA 1: CACCCGUGCAAAAAUGCAGGGGUCUAAAACUGAGCGGAUAACCUCUCUAUGG
RNA 2: GGGAAUGGAUCCACAUCUACGAAUUCCUUCCAUAGAGAGGUUAUCCGCUCACUCAGAUCGGAAGAGCACACGU
B13: target 1 MT 5'PFS GGU 3'PFS CUA (mixed)
RNA 1: CACCCGUGCAAAAAUGCAGGGGUCUAAAACUGAGCGGAUAACCUCUCUAUGG
RNA 2: GGGAAUGGAUCCACAUCUACGAAUUCGGUCCAUAGAGAGGUUAUCCGCUCACUAAGAUCGGAAGAGCACACGU
B14: target 1 MT 5'PFS AAG 3'PFS UGU (mixed)
RNA 1: CACCCGUGCAAAAAUGCAGGGGUCUAAAACUGAGCGGAUAACCUCUCUAUGG
RNA 2: GGGAAUGGAUCCACAUCUACGAAUUCAAGCCAUAGAGAGGUUAUCCGCUCAUGUAGAUCGGAAGAGCACACGU
B15: target 1 MT 5'PFS AGA 3'PFS AUA (mixed)
RNA 1: CACCCGUGCAAAAAUGCAGGGGUCUAAAACUGAGCGGAUAACCUCUCUAUGG
RNA 2: GGGAAUGGAUCCACAUCUACGAAUUCAGACCAUAGAGAGGUUAUCCGCUCAAUAAGAUCGGAAGAGCACACGU
B16: target 1 MT 5'PFS GGC 3'PFS AAA (mixed)
RNA 1: CACCCGUGCAAAAAUGCAGGGGUCUAAAACUGAGCGGAUAACCUCUCUAUGG
RNA 2: GGGAAUGGAUCCACAUCUACGAAUUCGGCCCAUAGAGAGGUUAUCCGCUCAAAAAGAUCGGAAGAGCACACGU
B17: target 1 MT 5'PFS AGG 3'PFS AGC (mixed)
RNA 1: CACCCGUGCAAAAAUGCAGGGGUCUAAAACUGAGCGGAUAACCUCUCUAUGG
RNA 2: GGGAAUGGAUCCACAUCUACGAAUUCAGGCCAUAGAGAGGUUAUCCGCUCAAGCAGAUCGGAAGAGCACACGU
B18: target 1 MT 5'PFS ACA 3'PFS UUC (mixed)
RNA 1: CACCCGUGCAAAAAUGCAGGGGUCUAAAACUGAGCGGAUAACCUCUCUAUGG
RNA 2: GGGAAUGGAUCCACAUCUACGAAUUCACACCAUAGAGAGGUUAUCCGCUCAUUCAGAUCGGAAGAGCACACGU
B19: target 1 MT 5'PFS CCU 3'PFS ACU (mixed)
RNA 1: CACCCGUGCAAAAAUGCAGGGGUCUAAAACUGAGCGGAUAACCUCUCUAUGG
RNA 2: GGGAAUGGAUCCACAUCUACGAAUUCCCUCCAUAGAGAGGUUAUCCGCUCAACUAGAUCGGAAGAGCACACGU
B20: target 1 MT 5'PFS GCA 3'PFS UGU (mixed)
RNA 1: CACCCGUGCAAAAAUGCAGGGGUCUAAAACUGAGCGGAUAACCUCUCUAUGG
RNA 2: GGGAAUGGAUCCACAUCUACGAAUUCGCACCAUAGAGAGGUUAUCCGCUCAUGUAGAUCGGAAGAGCACACGU
B21: target 1 MT 5'PFS UAU 3'PFS UCG (mixed)
RNA 1: CACCCGUGCAAAAAUGCAGGGGUCUAAAACUGAGCGGAUAACCUCUCUAUGG
RNA 2: GGGAAUGGAUCCACAUCUACGAAUUCUAUCCAUAGAGAGGUUAUCCGCUCAUCGAGAUCGGAAGAGCACACGU
B22: target 1 U10G,U19C (mixed)
RNA 1: CACCCGUGCAAAAAUGCAGGGGUCUAAAACUGAGCGGAUAACCUCUCUAUGG
RNA 2: GGGAAUGGAUCCACAUCUACGAAUUCGUACCACAGAGAGGUGAUCCGCUCACCGAGAUCGGAAGAGCACACGU
B23: target 1 MT 5'PFS GCA 3'PFS UGC (mixed)
RNA 1: CACCCGUGCAAAAAUGCAGGGGUCUAAAACUGAGCGGAUAACCUCUCUAUGG
RNA 2: GGGAAUGGAUCCACAUCUACGAAUUCGCACCAUAGAGAGGUUAUCCGCUCAUGCAGAUCGGAAGAGCACACGU
B24: target 1 MT 5'PFS ACA 3'PFS UUA (mixed)
RNA 1: CACCCGUGCAAAAAUGCAGGGGUCUAAAACUGAGCGGAUAACCUCUCUAUGG
RNA 2: GGGAAUGGAUCCACAUCUACGAAUUCACACCAUAGAGAGGUUAUCCGCUCAUUAAGAUCGGAAGAGCACACGU
B25: target 1 MT 5'PFS ACA 3'PFS UUU (mixed)
RNA 1: CACCCGUGCAAAAAUGCAGGGGUCUAAAACUGAGCGGAUAACCUCUCUAUGG
RNA 2: GGGAAUGGAUCCACAUCUACGAAUUCACACCAUAGAGAGGUUAUCCGCUCAUUUAGAUCGGAAGAGCACACGU
B26: target 1 MT 5'PFS AAG 3'PFS UGC (mixed)
RNA 1: CACCCGUGCAAAAAUGCAGGGGUCUAAAACUGAGCGGAUAACCUCUCUAUGG
RNA 2: GGGAAUGGAUCCACAUCUACGAAUUCAAGCCAUAGAGAGGUUAUCCGCUCAUGCAGAUCGGAAGAGCACACGU
B27: target 1 MT 5'PFS AGG 3'PFS AGA (mixed)
RNA 1: CACCCGUGCAAAAAUGCAGGGGUCUAAAACUGAGCGGAUAACCUCUCUAUGG
RNA 2: GGGAAUGGAUCCACAUCUACGAAUUCAGGCCAUAGAGAGGUUAUCCGCUCAAGAAGAUCGGAAGAGCACACGU

The data set deals with T1, EsCas13d, nuclease-dead. Description: crRNA (strand 1, pre-loaded); Mg2+; 40 mM Tris-HCl pH 7.5, 150 mM NaCl, 6 mM MgCl2, 1 mM DTT, 0.1% Tween-20, 0.2 mg/ml BSA; 25 C; 10 min per concentration, then washed. The note with it: tags: His6-TwinStrep-SUMO cleaved; N-terminal SNAP kept (SNAP-Surface 488); label: 3' end held by stalled T7 RNA polymerase.
As usually defined, the Kd is the equilibrium constant for the complex coming apart. A higher Kd goes with weaker binding. B1 came in with a Kd of 41 ± 19 nM.

With B2, the Kd was 49 ± 17 nM.

As to B3, binding was characterised by a dissociation constant (Kd) of 22 ± 4.5 nM.

B4 yielded a Kd of 16.4 ± 2.25 nM.

B5: binding was characterised by a dissociation constant (Kd) of 21 ± 6 nM.

The molecule B6 showed a Kd of 5.55 ± 1.45 nM.

In turn, B7 registered a Kd of 39 ± 13.5 nM.

Regarding B8, the Kd was roughly 110 nM.

B9 showed an equilibrium dissociation constant (Kd) of 44.5 ± 18.5 nM.

As for B10, the Kd was 31.6 ± 1.2 nM.

Consider B11, for which the Kd was found to be 29.5 ± 12.5 nM.

In turn, B12 registered a Kd of roughly 15 nM.

Turning to B13, the affinity, expressed as Kd, was 64.5 ± 27.5 nM.

As for B14, the Kd is 35.5 ± 10.5 nM.

B15 displayed a Kd of 45 ± 15 nM.

As for B16, the Kd is 52 ± 14 nM.

In turn, B17 gave a Kd of roughly 52 nM.

B18 displayed a Kd of 12.7 ± 4.2 nM.

B19 showed a Kd of 16.5 ± 5.5 nM.

The molecule B20 had a Kd of 35 ± 7.5 nM.

As for B21, the Kd was 29 ± 7 nM.

As to B22, the Kd was determined as 48 ± 8 nM.

The molecule B23 registered a Kd of 15.8 ± 2.95 nM.

B24 yielded a Kd of 8.85 ± 2.9 nM.

As to B25, binding was characterised by a dissociation constant (Kd) of 5.35 ± 1.15 nM.

B26 registered a Kd of 51.5 ± 25 nM. This Kd lies about 9.6-fold higher than the previous one.

The molecule B27 displayed a Kd of 37.5 ± 8.5 nM.

For the origin of these results see publication PMC10786891, “Massively parallel profiling of RNA-targeting CRISPR-Cas13d”.
